The record followed here is article PMC12520690 (2025).

This test has as its target NaV1.5 CTD (Homo sapiens, UniProt Q14524). Briefly: ITC. In general terms: ITC needs no label: the signal is the heat of the interaction.

Sequence of NaV1.5 CTD (Q14524 1773-1940): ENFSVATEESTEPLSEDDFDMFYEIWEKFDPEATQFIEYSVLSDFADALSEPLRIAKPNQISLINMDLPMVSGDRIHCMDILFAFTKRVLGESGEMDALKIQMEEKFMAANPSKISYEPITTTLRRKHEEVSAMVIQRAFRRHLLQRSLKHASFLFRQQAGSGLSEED

B1: FGF13 (protein)
chain: MAAAIASSLIRQKRQAREREKSNACKCVSSPSKGKTSCDKNKLNVFSRVKLFGSKKRRRRRPEPQLKGIVTKLYSRQGYHLQLQADGTIDGTKDEDSTYTLFNLIPVGLRVVAIQGVQTKLYLAMNSEGYLYTSELFTPECKFKESVFENYYVTYSSMIYRQQQSGRGWYLGLNKEGEIMKGNHVKKNKPAAHFLPKPLKVAMYKEPSLHDLTEFSRSGSGTPTKSRSVSGVLNGGKSMSHNEST
As for B1, the Kd (in general, a measure of binding affinity in units of concentration) was determined as 123 nM.
